The values that follow come from ChEMBL document CHEMBL1145332, “Design of inhibitors of orotidine monophosphate decarboxylase using bioisosteric replacement and determination of inhibition kinetics” (J Med Chem, 2006).

As a reminder, the Km is the substrate concentration at which the rate is half of its maximum.

Substrate in series [1]: O=C(O)c1cc(=O)[nH]c(=O)n1[C@@H]1O[C@H](COP(=O)(O)O)[C@@H](O)[C@H]1O
As to the kind of experiment: Affinity for Plasmodium falciparum ODCase at 25 degreeC by UV-based assay.

Substrate in series [2]: O=C(O)c1cc(=O)[nH]c(=O)n1[C@@H]1O[C@H](COP(=O)(O)O)[C@@H](O)[C@H]1O
The series is described as follows: Affinity for Saccharomyces cerevisiae ODCase at 25 degreeC by UV-based assay.

Substrate in series [3]: O=C(O)c1cc(=O)[nH]c(=O)n1[C@@H]1O[C@H](COP(=O)(O)O)[C@@H](O)[C@H]1O
The series is described as follows: Affinity for Methanobacterium thermoautotrophicum ODCase at 25 degreeC by ITC method. A general note: ITC needs no label: the signal is the heat of the interaction.

Substrate in series [4]: O=C(O)c1cc(=O)[nH]c(=O)n1[C@@H]1O[C@H](COP(=O)(O)O)[C@@H](O)[C@H]1O
As to the kind of experiment: Affinity for Methanobacterium thermoautotrophicum ODCase at 55 degreeC by ITC method.

B1: Orotidine phosphate decarboxylase (Plasmodium falciparum), Q8T6J6 (protein)
chain: MGFKVKLEKRRNAINTCLCIGLDPDEKDIENFMKNEKENNYNNIKKNLKEKYINNVSIKKDILLKAPDNIIREEKSEEFFYFFNHFCFYIINETNKYALTFKMNFAFYIPYGSVGIDVLKNVFDYLYELNIPTILDMKINDIGNTVKNYRKFIFEYLKSDSCTVNIYMGTNMLKDICYDEEKNKYYSAFVLVKTTNPDSAIFQKNLSLDNKQAYVIMAQEALNMSSYLNLEQNNEFIGFVVGANSYDEMNYIRTYFPNCYILSPGIGAQNGDLHKTLTNGYHKSYEKILINIGRAITKNPYPQKAAQMYYDQINAILKQNMES
B1: the Km in series [1] was found to be 13 µM.

B2: Orotidine 5'-phosphate decarboxylase (Saccharomyces cerevisiae S288c), P03962 (protein)
chain: MSKATYKERAATHPSPVAAKLFNIMHEKQTNLCASLDVRTTKELLELVEALGPKICLLKTHVDILTDFSMEGTVKPLKALSAKYNFLLFEDRKFADIGNTVKLQYSAGVYRIAEWADITNAHGVVGPGIVSGLKQAAEEVTKEPRGLLMLAELSCKGSLATGEYTKGTVDIAKSDKDFVIGFIAQRDMGGRDEGYDWLIMTPGVGLDDKGDALGQQYRTVDDVVSTGSDIIIVGRGLFAKGRDAKVEGERYRKAGWEAYLRRCGQQN
Regarding B2, in series [2], the Michaelis-Menten constant (Km) worked out at 0.7 µM.

B3: Orotidine 5'-phosphate decarboxylase (Methanobacterium thermoautotrophicum), O26232 (protein)
chain: MRSRRVDVMDVMNRLILAMDLMNRDDALRVTGEVREYIDTVKIGYPLVLSEGMDIIAEFRKRFGCRIIADFKVADIPETNEKICRATFKAGADAIIVHGFRGADSVRACLNVAEEMGREVFLLTEMSHPGAEMFIQGAADEIARMGVDLGVKNYVGPSTRPERLSRLREIIGQDSFLISPGVGAQGGDPGETLRFADAIIVGRSIYLADNPAAAAAGIIESIKDLLNP
Consider B3, for which the Km in series [3] amounted to 2 µM; in series [4] it was 5 µM.
